Data set [1] concerns the molecule itself. Put plainly: crystal structure.
In data set [2] the target is full-length XLF (XLF^FL) (human, UniProt Q9H9Q4 1-299). Put plainly: SEC. Background: In gel filtration, larger molecules generally elute earlier.

B1: XLF(1–224) (domain or fragment)
chain: MEELEQGLLMQPWAWLQLAENSLLAKVFITKQGYALLVSDLQQVWHEQVDTSVVSQRAKELNKRLTAPPAAFLCHLDNLLRPLLKDAAHPSEATFSCDCVADALILRVRSELSGLPFYWNFHCMLASPSLVSQHLIRPLMGMSLALQCQVRELATLLHMKDLEIQDYQESGATLIRDRLKTEPFEENSFLEQFMIEKLPEACSIGDGKPFVMNLQDLYMAVTTQ
Turning to B1, the binding result in data set [1] is listed as “binds”.

B2: XRCC4(1–140) (domain or fragment)
chain: MERKISRIHLVSEPSITHFLQVSWEKTLESGFVITLTDGHSAWTGTVSESEISQEADDMAMEKGKYVGELRKALLSGAGPADVYTFNFSKESCYFFFEKNLKDVSFRLGSFNLEKVENPAEVIRELICYCLDTIAENQAK
Take B2: in data set [2], the binding result was “binds”.

(Values after article PMC3173232 (The Journal of Biological Chemistry, 2011).)
